System: cultured proximal and distal airway epithelium
Experiment: IL-13-induced mucous metaplasia (goblet cell differentiation) in cultured proximal and distal airway epithelium (ALI)
Format: cell-based, mouse
Conditions: rIL-13 25 ng/mL vs control; epithelia from proximal vs distal trachea, Foxj1-GFP mice n=6; p<0.001
Protocol: Transwell cultures. Cells were cultured and expanded in complete SAGM (small airway epithelial cell growth medium; Lonza, CC-3118) containing TGF-β/BMP4/WNT antagonist cocktails and 5 μM Rock inhibitor Y-27632 (Selleckbio, S1049). To initiate air-liquid interface (ALI) cultures, airway basal stem cells were dissociated from mouse tracheas and seeded onto transwell membranes. After reaching confluence, media was removed from the upper chamber. Mucociliary differentiation was performed with PneumaCult-ALI Medium (StemCell, 05001). Differentiation of airway basal stem cells on an air-liquid interface was followed by directly visualizing beating cilia in real time after 10-14 days. […]
Statistical analysis of proximodistal mucous metaplasia. For the analysis in FIG. 18H,I, the extent of goblet cell hyperplasia was assessed using counts of Muc5ac^+ goblet cells, normalized to counts of GFP^+ ciliated cells. To quantify differences in the count values between the samples in different conditions (n=6, Foxj1-GFP mice), Applicants fit a negative binomial regression using the ‘glm.nb’ function from the ‘MASS’ package in R. Pairwise comparisons between means for each condition were computed using post hoc tests and p-values were adjusted for multiple comparisons using Tukey's HSD, implemented using the function ‘pairs’ from the ‘emeans’ package in R.

B1: rIL-13: recombinant murine IL-13 (Peprotech) used to induce mucous metaplasia (protein, UniProt P20109 19-131, looked up)
Interleukin-13: APGPVPRSVSLPLTLKELIEELSNITQDQTPLCNGSMVWSVDLAAGGFCVALDSLTNISNCNAIYRTQRILHGLCNRKAPTTVSSLPDTKIEVAHFITKLLSYTKQLFRHGPF
  induction of goblet cell differentiation (Muc5ac+ goblet cells / GFP+ ciliated cells): much higher induction of goblet cell differentiation in the distal epithelium

— patent US12331319B2, “Respiratory and sweat gland ionocytes” (The Broad Institute, Inc., priority 2017, dated 2025)
